According to patent US10370647B2 (priority 2015, dated 2019):

How the values were obtained:
KFtx series = type: cell-based; conditions: 72 hours
ERK = test: Change in pERK/tERK by EGF stimulation (In-Cell ELISA); type: cell-based; conditions: all cells (Low, UCA1 Low, Empty Low, KFtx); 0.2 ng/μl EGF, 30 minutes; 10% or 0.5% FBS
Protocol: The KFtx series (Low, UCA1 Low, Empty Low, and KFtx) were seeded at a cell density of 6×10^3/well in 10% FBS-containing RPMI on a 96-well plate, and were then cultured at 37° C. for 12 hours. Thereafter, the medium was exchanged with RPMI containing 10% FBS or 0.5% FBS. The cells were further cultured at 37° C. for 24 hours, and the medium was then exchanged with another one, to result in an EGF concentration of 0.2 ng/μl. After 30 minutes of EGF stimulation, tERK (total-ERK) and pERK (phosphorylated-ERK) were measured using Pierce Colorimetric In-Cell ELISA Kits (n=3). […] In addition, it was confirmed that, in all cells, pERK was activated by EGF stimulation and the percentage of the pERK was increased.

B1: EGF (protein, UniProt P01133 23-1207, looked up)
Pro-epidermal growth factor: PQHWSCPEGTLAGNGNSTCVGPAPFLIFSHGNSIFRIDTEGTNYEQLVVDAGVSVIMDFHYNEKRIYWVDLERQLLQRVFLNGSRQERVCNIEKNVSGMAINWINEEVIWSNQQEGIITVTDMKGNNSHILLSALKYPANVAVDPVERFIFWSSEVAGSLYRADLDGVGVKALLETSEKITAVSLDVLDKRLFWIQYNREGSNSLICSCDYDGGSVHISKHPTQHNLFAMSLFGDRIFYSTWKMKTIWIANKHTGKDMVRINLHSSFVPLGELKVVHPLAQPKAEDDTWEPEQKLCKLRKGNCSSTVCGQDLQSHLCMCAEGYALSRDRKYCEDVNECAFWNHGCTLGCKNTPGSYYCTCPVGFVLLPDGKRCHQLVSCPRNVSECSHDCVLTSEGPLCFCPEGSVLERDGKTCSGCSSPDNGGCSQLCVPLSPVSWECDCFPGYDLQLDEKSCAASGPQPFLLFANSQDIRHMHFDGTDYGTLLSQQMGMVYALDHDPVENKIYFAHTALKWIERANMDGSQRERLIEEGVDVPEGLAVDWIGRRFYWTDRGKSLIGRSDLNGKRSKIITKENISQPRGIAVHPMAKRLFWTDTGINPRIESSSLQGLGRLVIASSDLIWPSGITIDFLTDKLYWCDAKQSVIEMANLDGSKRRRLTQNDVGHPFAVAVFEDYVWFSDWAMPSVMRVNKRTGKDRVRLQGSMLKPSSLVVVHPLAKPGADPCLYQNGGCEHICKKRLGTAWCSCREGFMKASDGKTCLALDGHQLLAGGEVDLKNQVTPLDILSKTRVSEDNITESQHMLVAEIMVSDQDDCAPVGCSMYARCISEGEDATCQCLKGFAGDGKLCSDIDECEMGVPVCPPASSKCINTEGGYVCRCSEGYQGDGIHCLDIDECQLGEHSCGENASCTNTEGGYTCMCAGRLSEPGLICPDSTPPPHLREDDHHYSVRNSDSECPLSHDGYCLHDGVCMYIEALDKYACNCVVGYIGERCQYRDLKWWELRHAGHGQQQKVIVVAVCVVVLVMLLLLSLWGAHYYRTQKLLSKNPKNPYEESSRDVRSRRPADTEDGMSSCPQPWFVVIKEHQDLKNGGQPVAGEDGQAADGSMQPTSWRQEPQLCGMGTEQGCWIPVSSDKGSCPQVMERSFHMPSYGTQTLEGGVEKPHSLLSANPLWQQRALDPPHQMELTQ
modifications: Pro-epidermal growth factor
KFtx series
  replication ability of the vaccinia virus by EGF stimulation: not enhanced
ERK
  percentage of the pERK: increased
